What was measured:
[1] = test system: SC macrophage cells; assay: SC macrophage trans-well migration towards ETP transfected MCF7 cells; format: cell-based, human; conditions: 10, 2, 0.4, 0.08 μg/mL antibody, 2 hr
Procedure: FIGS. 3A-D. Generation and screening of anti-human endotrophin. (FIG. 3A) MCF7 breast cancer cells (20,000 cells) were plated into a 96-well plate. Cells were then treated with 10 μm cisplatin, 10 μm cisplatin/100 ng/mL endotrophin, and 10 μm cisplatin/100 ng/mL endotrophin/10 μg/mL ETPmAb4 for 24 hr. Cell survival was measured using a CellTiter One Solution Cell Proliferation Assay. Statistical significance of the curve fit parameters was tested using the extra sum of squares F test with P<0.05 considered significant. Goodness of curve fit is described using r2. Mean±SEM, n=3. (FIG. 3B) ETP transfected MCF7 cells (100,000 cells) were plated into a 24-well plate with 500 μL media. Then 4 μL of supernatant was loaded for Western blotting. It is estimated that approximately 1 ng of ETP was loaded, compared with the standard ETP (2 ng band). The concentration yields approximately 0.052 pg secreted ETP/hr/cell. (FIG. 3C) Total RNA was extracted from MCF7, HCC1395, MDAMB231, ZR-75 and MDAMB453 cells. ETP expression was determined by qRT-PCR and normalized to GAPDH. […] Migrated cells were counted after a 2 hr incubation. In all cases, data was represented as mean±SD, and statistical significance (*** p<0.0001) was calculated using an unpaired Student's t-test.
Primary Culture of Human Cells and Transwell Assays. […] Migrated cells were then counted after 2 hr. […]

[2] = test system: MDA-MB-231 cells; assay: MDA-MB-231 tumor growth in nude mice; format: in vivo
Procedure: FIGS. 6A-D. The antibody effects on MDA-MB-231 cells in vivo. (FIG. 6A) MDA-MB-231 cells (2×10^6 cells) were implanted into nude mice. Then 2.5 mg/kg of cisplatin and 20 mg/kg of ETPmAb4 antibody (twice a week) were injected after 10-days implantation for 5-weeks. Tumor volume was determined by caliper measurement. The insert reflects a simplified analysis of control antibody versus ETPmAb4 with associated statistics. (FIG. 6B) MDA-MB-231 cells (2×10^6 cells) were implanted into nude mice. Treatment was started when the tumor volume was over 30 mm^3. At that point, 2.5 mg/kg of cisplatin and 20 mg/kg of ETPmAb4 antibody (twice weekly) were injected for 5-weeks. Tumor volumes were determined by caliper measurements. The insert reflects a simplified analysis of control antibody versus ETPmAb4 with associated statistics. (FIG. 6C) SKOV3 cells (2×10^6 cells) were implanted into nude mice. Then 2.5 mg/kg of cisplatin and 20 mg/kg of ETPmAb4 antibody (twice weekly) were injected 10-days after implantation for 5-weeks. Tumor volumes were determined by caliper measurements. The insert reflects a simplified analysis of control antibody versus ETPmAb4 with associated statistics. (FIG. 6D) MDA-MB-231 cells (2×10^6 cells) were implanted into nude mice. Then 2.5 mg/kg of cisplatin, 20 mg/kg of ETPmAb4 antibody and 20 mg/kg of humanized ETPmAb4 antibody (twice a week) were injected after 10-days implantation for 5-weeks. Tumor volume was determined by caliper measurement. […]
Animal experiments. […] Tumors were measured twice a week, beginning 10 days after injection, and tumor volume was calculated by length×(width) 2/2 (mm^3).
Analysis of Tumor Progression. Tumor onset was monitored twice weekly by palpation. Tumor sizes were measured using a digital caliper twice weekly and the volumes were calculated as length× width2)/2. […] Animals were sacrificed when the tumor burden visibly affected the host, or when the tumors reached the IACUC pre-determined limit of 20 mm along one axis. […]
After humanization, the binding affinity of hETPmAb4 to endotrophin was measured in Octet RED96. […]

B1: ETP-mAb4: rabbit monoclonal anti-human endotrophin antibody selected for further study; VH SEQ ID NO: 125, VL SEQ ID NO: 126 (antibody, V domains shown)
VH: SSRVKESGGDLVKPGASLTLTCKASGFSFSSGYYICWVRQAPGKGLEWIACIYGGNNNPYYANWVNGRFTTSKTSSTTVTLQMTNLTGADTATYFCARKDINIGGAYELWGPGTLVTISS
VL: ELVMTQTPASVSEPVGGTVTINCQASQSISSSYLSWYQQKPGQPPKLLIYKASTLASGVPSRFKGSGSGTQFSLTISDLECADAATYYCQYSDWANSYGNAFGGGTEVVVK
migration of SC macrophages into the bottom chamber [1]: effectively prevented the migration | lesion growth, combination with cisplatinum ([2]; 20 mg/kg antibody plus 2.5 mg/kg cisplatin): essentially inhibited lesion growth | rate of tumor growth, antibody alone ([2]; 20 mg/kg twice a week): significantly reduced the rate of tumor growth

From patent publication US12331110B2, “Monoclonal antibodies against endotrophin and the use thereof” (THE BOARD OF REGENTS OF THE UNIVERSITY OF TEXAS SYSTEM, priority 2018, dated 2025)
